Measurements published in the DeepSol protein solubility set.

Assay: soluble on expression in E. coli; label from the status in PepcDB or PDB records

| Sequence | soluble on expression in E. coli |
| --- | --- |
| MSLTDLIVTNGAVLTMDPARPEAEAVAVADGRITAVGSRAEIERLAGPRTDMIDAGGGTVLPGFVESHLHLVLGGAELAHLQLAGVHGVEALTRAAQSFAAAHPDRPLLMAQGGDYGLLDRPMTRQDLDAILPDRPFAITAPDHHTVWANTAALRAAGLIEGASMPHGHEVVMGADGRATGELREFEAFAPVIALGGEARLNLGIATGEEPSPWPDAAERAIDRAKIARGLAHCAAHGITSMVNMDGNRYTLELLRELQRAGGLTARIRVPFHFKPHMALADLARAEAMTRDFDDDWLACNFVKMFMDGVLDSGTAYRLDDYPDAPGWRSEPLFEPARFAEIATAVDRRGLQIAVHAIGCGAVRTTLDGYAAARAANGARDSRHRIEHIELIDRADIPRLAALGVVASLQPPHPPGAMDFPLQPTLDRIGRSRWPDAYLCRTLAEAGAPVVFASDWPVTDVSVLRGLQAALTRRPYEGAADERLTLAESLRAYTAGGAWANHRERLTGTLRAGLAADLAILDGRLEARAADSLGSLGVARTLCGGRTTHRREGHHHHHH | not soluble |
| MFKIVYPNAKDFFSFINSITNVTDSIILNFTEDGIFSRHLTEDKVLMAIMRIPKDVLSEYSIDSPTSVKLDVSSVKKILSKASSKKATIELTETDSGLKIIIRDEKSGAKSTIYIKAEKGQVEQLTEPKVNLAVNFTTDESVLNVIAADVTLVGEEMRISTEEDKIKIEAGEEGKRYVAFLMKDKPLKELSIDTSASSSYSAEMFKDAVKGLRGFSAPTMVSFGENLPMKIDVEAVSGGHMIFWIAPRLLEHHHHHH | soluble |
| MGSDKIHHHHHHMQQEIIDFRQSQSLAGAELSRASYQRFDFGRHVHEDLHLGAVIRGAQAFNHKGTGHTLCRGDLSTLSPDECHDGIAATDTGYEVLVLSLPQWHLDRFAAELGISFGGFCQPKRKDMALYQAFVSLHRLLYQAENPLLEETALLDFFQRLLGQCSKSEKVTNTGTVKAGLSREIRLAKSLMADTPEPVTLELLGDATGLGRYRLLRHFRAQTGLSPHQWQLRLRLERAKKSLMQNDGNSLTDIAHQHGFSDLSHFTRHFRMAFLTSPSAYRRAIRN | not soluble |
| AMTGSDGTKILTITRPDTHGTKTSLTARLYSDTTKKATLDTIFTVVTSPDSDKAKMWGHMPETVTAADGAVFKRPLLLKELSSTSGRTAIAEDNEDWAQFTQAQAISTSSNGCGSEYVPSQAGLESLYEANRGNAMKTVQGWPVASSYLSSTTGSSSLEQRDFKAVNLSSGTSSIIPSATKELLTCQ | not soluble |
| SITSTVLPPVYNQQNEDTCIIRISVEDNNGNMYKSIMLTSQDKTPAVIQRAMSKHNLESDPAEEYELVQVISEDKELVIPDSANVFYAMNSQVNFDFILRKKN | soluble |
| MPDKKTLWMLNELEGFEKPKIKLEQYATSSELAVSMMEMIDETIGFEGKKLIDIGCGCGMLMTTAATMYELETVLGVDIDDEALKICSRNLETAEVQDRCELLQADILDPESDLPRGTFDVAVINPPFGTKNNAGIDMQFVQIGLQMVRPGGSVFSLHKSSTRDYILKNAKKWDGVGAECCAEMRWQLPATYKFHKQKAVDIAVDLIHFKKLDS | soluble |
| MKGKMAIVISTLNNPWFVVLAETAKQRAEQLGYEATIFDSQNDTAKESAHFDAIIAAGYDAIIFNPTDADGSIANVKRAKEAGIPVFCVDRGINARGLAVAQIYSDNYYGGVLMGEYFVKFLKEKYPDAKEIPYAELLGILSAQPTWDRSNGFHSVVDQYPEFKMVAQQSAEFDRDTAYKVTEQILQAHPEIKAIWCGNDAMALGAMKACEAAGRTDIYIFGFDGAEDVINAIKEGKQIVATIMQFPKLMARLAVEWADQYLRGERSFPEIVPVTVELVTRENIDKYTAYGRKEEGSHHHHHH | soluble |
| MVDIEPDRVYVFTPDGHAIDLPKNATPLDFAYRVHTEIGHNCRGAKINGRIVPLNYSLQTGEQVEIITSKHGTPSRDWLEHHHHHH | not soluble |
| MGSDKIHHHHHHMTKHFSPYDADKPLFATCSCGQHASEEDHLKAGMSTLEHQETGRSTEEEFSNDFIEAALVKAILPHERQRRDFLRAVGKGAAMAAISAVFPLGSLKAMAMEKGSIEKSTLKVGFIPITCAAPLILAEPMGFFKEQGLNVELNKTAGWALVRDKIMNHEYDASQFLAPMPLAMTLGAGSSAQTVNVAAIQNVNGQAIVLALKHKSNRDPKNWKGFKFAIPFEFSMHNFLLRYYLAEAGIDPDRDVQLRVVPPAEMLANLRAGNIDGFLGPDPFSQRAVFEGVGFIHILSQDIWNGHPCCSFGASASFIQQNPNTFAALYRAFLKSSAFAHDKNNRKEVAAIISKPKYLNQPEIIVNQVITGRYADGLGNIVNAPGRVGFEAIPWEGMALWMLTQMKRWGYLKGDVSYQAIAEKVFMMTDAKKAMQGLGLEVPQSSGKIVVMGKAFDPLKPQSYVDSFGIKR | not soluble |
| MRLDKYLSKSLHISRKEAKELIREGRVKVSGKVVKQAEYRVKEGEEVEVEGKSVKPKKNVYLMLYKPKGYLSTTEEDKKYPSFLELIREHFPSRKLFSAGRLDVDAEGLLLITDDGELAHRLTHPKWKVEKEYIVRLDRDIGDEELKKLYEVKLEEKPVQLVKAEKLSGDTVKAILTEGRHHVVKRLFKAVGHNVVYLKRTRVGNLRLDENMEPGEWRELTEEEVKELKRLVKYNPQN | soluble |
| AHQTKVDTLIVTNSKAWKPFSYVSQDGEPKGILIDFWREYAERNHVRVEFLLLDWEESLRAVKEGRADVHAGLIYSEARDKYLDFGAVIMPIQTKLYVNKDMLAVDIKGVLTGEVELPIGLVKGSYEAEFVRANYPRASLVEYLNNDAMIRAAVEKNILYFVADLQVAN | not soluble |
| MTNEADKFVVDVIYALPTQQKVISVSVLPGTSAIDIVRQSNMVSFFPEIELETVKLGVFSNVVKHDQVILPGQRVEIYRPLIADPKDVRRRRADKAKDEGRANKVTGGRVS | soluble |
| QKDFSWNASLLYAFNRNKVKHISVQPSLWDSRISMPTSYPMVGKPLYGIYAYKWAGLNENGDPQVYDAENNVTSGPARDYHALVYCGTTVPIHNASLTNVLRYKGFEFSAMLILDAGHKLRSSNIPSINMSNGRITSTAKGIVDRWTQPGDVTDVPRLLFSNDTENFNTHRTELYRYSDLFVYDASNIRLSNISLAYRVPAHWCKKISLSGARLQFNVENVATFAFDSKANYDLGGKVKPNYVWGLYLNF | not soluble |
| MTEIQKPYDLKGRSLLKESDFTKAEFEGLIDFAITLKEYKKNGIKHHYLSGKNIALLFEKNSTRTRAAFTVASIDLGAHPEFLGKNDIQLGKKESVEDTAKVLGRMFDGIEFRGFSQQAVEDLAKFSGVPVWNGLTDDWHPTQMLADFMTIKENFGYLEGINLTYVGDGRNNIAHSLMVAGAMLGVNVRICTPKSLNPKEAYVDIAKEKASQYGGSVMITDNIAEAVENTDAIYTDVWVSMGEESEFEQRINLLKDYQVNQQMFDLTGKDSTIFLHCLPAFHDTNTLYGQEIYEKYGLAEMEVTDQIFRSEHSKVFDQAENRMHTIKAVMAATLGS | not soluble |
| ELGIKRESKLEFKLWYDDEKTPEALVFVVQGMGDDISSIQYVGDYMVRQFNTAVVGVNYHCIGNRPQTGSSFFMDDIDKLILKASCEAADIKLPYDVDKIQDYKAMSEIFHFVNNQIVEGKQKGNFTPNYFLNLHVSLQPTKNEYQNFGIMQAQDLLNVALYLKKHAPFDTMGGGIPIIMIGGSHGGYLAHLAAKIAPWLVDGVLDNSAYAKFLWRVVGFGKEIDFMQYSEFATFDFFHHIKTHCSTKTFWTSNSSSPRFFSPARRKIRNLLEEDHLLKQSKCLKTCFISYHSLYDEYVSLKEKTMFYEELEKLGFDVTLHSIT | not soluble |
| KDMFNTKSSNGKLRIEDASHNARKLGLAPSSTDEKKIRDLYGDSLTYEQYLEYLTMCVHDRDNMEELIKMFSHFDNNSSGFLTKNQMKNILTTWGDALTEQEANDALNAFSSEDRINYKLFCEDIL | soluble |
